Results: patent publication US20150098945A1 (Daiichi Sankyo, published 2015)

Columns and labels:
Experiment in all cases: flow cytometry on transfected HEK293 cells
[1] = molecular target: T1, mouse ROBO4 (pCI-mROBO4-transfected HEK293 cells) (mouse, UniProt Q8C310 28-1012)
T1 sequence: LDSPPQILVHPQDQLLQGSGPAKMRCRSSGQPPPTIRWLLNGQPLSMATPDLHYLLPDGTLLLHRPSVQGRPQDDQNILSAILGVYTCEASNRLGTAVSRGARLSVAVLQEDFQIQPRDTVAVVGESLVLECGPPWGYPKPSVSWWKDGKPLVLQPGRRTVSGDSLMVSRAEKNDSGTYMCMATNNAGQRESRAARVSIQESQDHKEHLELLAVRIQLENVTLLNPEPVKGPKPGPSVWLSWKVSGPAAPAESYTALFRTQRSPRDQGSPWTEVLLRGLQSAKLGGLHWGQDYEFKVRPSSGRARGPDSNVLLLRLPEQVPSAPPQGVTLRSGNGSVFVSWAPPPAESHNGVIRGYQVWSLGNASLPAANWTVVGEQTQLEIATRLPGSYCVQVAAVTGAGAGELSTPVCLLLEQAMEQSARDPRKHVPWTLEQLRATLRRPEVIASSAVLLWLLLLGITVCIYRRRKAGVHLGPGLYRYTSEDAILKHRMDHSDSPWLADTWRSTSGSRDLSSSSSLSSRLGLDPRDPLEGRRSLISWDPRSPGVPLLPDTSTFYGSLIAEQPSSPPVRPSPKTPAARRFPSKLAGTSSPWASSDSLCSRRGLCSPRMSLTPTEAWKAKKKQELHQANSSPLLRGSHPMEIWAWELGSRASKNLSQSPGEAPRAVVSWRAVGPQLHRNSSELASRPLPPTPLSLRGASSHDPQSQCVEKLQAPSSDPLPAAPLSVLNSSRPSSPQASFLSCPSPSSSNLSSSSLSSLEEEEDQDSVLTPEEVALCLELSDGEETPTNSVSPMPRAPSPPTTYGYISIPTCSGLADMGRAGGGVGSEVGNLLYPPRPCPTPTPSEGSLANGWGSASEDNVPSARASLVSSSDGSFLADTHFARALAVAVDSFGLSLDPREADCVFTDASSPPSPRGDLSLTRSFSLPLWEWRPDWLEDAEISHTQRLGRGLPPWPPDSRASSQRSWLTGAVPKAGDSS

[2] = molecular target: T2, rat ROBO4 (pCI-raROBO4-transfected HEK293 cells) (rat, UniProt Q80W87 38-949 at identity 0.93))
T2 chain: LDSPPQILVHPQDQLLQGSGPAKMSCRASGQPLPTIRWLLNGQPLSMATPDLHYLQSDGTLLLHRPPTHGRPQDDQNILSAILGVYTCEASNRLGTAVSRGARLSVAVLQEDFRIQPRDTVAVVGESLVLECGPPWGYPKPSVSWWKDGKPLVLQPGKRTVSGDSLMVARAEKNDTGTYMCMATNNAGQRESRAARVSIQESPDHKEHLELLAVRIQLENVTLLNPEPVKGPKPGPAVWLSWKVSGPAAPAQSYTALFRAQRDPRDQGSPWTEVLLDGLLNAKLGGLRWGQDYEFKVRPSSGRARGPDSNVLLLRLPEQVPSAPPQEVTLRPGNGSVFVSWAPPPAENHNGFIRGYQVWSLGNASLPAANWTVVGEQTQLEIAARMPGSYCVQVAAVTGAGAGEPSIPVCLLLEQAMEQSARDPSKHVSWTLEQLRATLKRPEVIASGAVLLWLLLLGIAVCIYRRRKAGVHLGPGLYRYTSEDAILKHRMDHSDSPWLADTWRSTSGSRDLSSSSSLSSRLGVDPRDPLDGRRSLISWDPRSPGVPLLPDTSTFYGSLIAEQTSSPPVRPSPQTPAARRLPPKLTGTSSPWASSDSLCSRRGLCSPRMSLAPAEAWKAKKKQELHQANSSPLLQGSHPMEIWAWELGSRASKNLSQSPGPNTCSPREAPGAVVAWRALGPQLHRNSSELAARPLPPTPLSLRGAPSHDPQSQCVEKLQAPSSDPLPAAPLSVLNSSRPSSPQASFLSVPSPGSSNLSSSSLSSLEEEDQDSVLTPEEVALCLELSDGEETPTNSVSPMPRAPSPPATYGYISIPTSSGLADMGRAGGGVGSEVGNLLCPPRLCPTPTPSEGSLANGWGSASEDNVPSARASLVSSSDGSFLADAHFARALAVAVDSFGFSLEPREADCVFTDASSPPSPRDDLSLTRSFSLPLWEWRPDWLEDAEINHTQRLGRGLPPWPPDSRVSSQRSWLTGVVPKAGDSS

[3] = molecular target: T3, N-terminal FLAG-tagged cynomolgus monkey ROBO4, cynoROBO4-1 (pCI-FLAG-cynoROBO4-1) (cynomolgus monkey, UniProt Q8WZ75 28-1007 (human entry))
T3 chain: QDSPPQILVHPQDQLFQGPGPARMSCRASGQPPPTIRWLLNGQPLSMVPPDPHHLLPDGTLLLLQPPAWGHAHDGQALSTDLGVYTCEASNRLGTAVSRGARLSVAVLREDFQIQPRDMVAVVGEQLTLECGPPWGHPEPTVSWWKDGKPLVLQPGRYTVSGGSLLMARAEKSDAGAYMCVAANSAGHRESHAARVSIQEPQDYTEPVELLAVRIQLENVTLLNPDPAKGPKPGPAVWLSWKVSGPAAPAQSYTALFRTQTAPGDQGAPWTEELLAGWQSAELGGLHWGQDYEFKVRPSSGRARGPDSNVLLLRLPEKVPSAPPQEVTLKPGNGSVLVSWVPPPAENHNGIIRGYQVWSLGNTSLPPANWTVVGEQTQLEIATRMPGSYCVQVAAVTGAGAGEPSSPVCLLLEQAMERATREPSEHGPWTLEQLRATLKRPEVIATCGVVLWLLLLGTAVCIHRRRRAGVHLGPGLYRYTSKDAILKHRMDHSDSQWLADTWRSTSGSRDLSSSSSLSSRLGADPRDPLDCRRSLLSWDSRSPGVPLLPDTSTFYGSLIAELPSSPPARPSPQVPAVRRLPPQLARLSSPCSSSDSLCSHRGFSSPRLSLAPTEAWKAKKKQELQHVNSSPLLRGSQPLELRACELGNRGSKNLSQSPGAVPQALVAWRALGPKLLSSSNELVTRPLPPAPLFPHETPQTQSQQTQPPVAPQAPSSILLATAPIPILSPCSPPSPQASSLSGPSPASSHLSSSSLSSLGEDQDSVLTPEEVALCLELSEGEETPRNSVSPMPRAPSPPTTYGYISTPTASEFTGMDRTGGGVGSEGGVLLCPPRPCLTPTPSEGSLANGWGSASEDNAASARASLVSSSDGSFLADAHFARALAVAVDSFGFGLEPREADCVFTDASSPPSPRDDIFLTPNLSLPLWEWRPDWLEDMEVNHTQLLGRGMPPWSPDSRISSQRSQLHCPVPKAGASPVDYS

B1: humanized MAb1 antibody H-1140 (antibody, human IgG2, kappa, V domains shown)
VH: EVQLVESGGGLVQPGGSLRLSCAASGFTFSTYAMSWVRQAPGKGLEWVATISQGGTYTYYPDSVKGRFTISRDNAKNTLYLQMNSLRAEDTAVYYCARLIYYDYLDYWGQGTLVTVSS
VL: DIVMTQSPLSLPVTLGEPASISCRSSQSLENSNGNTYLNWYLQKPGQSPQLLIYRVSNRFSGVPDRFSGSGSGTDFTLKISRVEAEDVGVYYCLQVTHVPWTFGPGTKVDIKR
notes: Human IgG2 / kappa constant regions; also called hMAb1-H2-type heavy chain + hMAb1-L1-type light chain
Question: Which results are given for B1?
Answer: binding result [1]: no binding (tested: 10 µg/mL (method of 4)-3-2)); binding result [2]: no binding (tested: 10 µg/mL (method of 4)-3-2)); binding result [3]: binds
